Assay results published in patent publication US20130089544A1.

What was measured:
[1] = biological target: human ErbB2, full length, on cells (human) (UniProt P04626); test: cell-based or functional assay
[2] = biological target: human ErbB2 ECD-myc/His fusion protein (human) (UniProt P04626); test: SPR, Biacore T100 high resolution; mAb captured on goat anti-human IgG, hHer-2(ECD)cMyc injected; 1:1 fit

- % Inhibition @10 µg/ml, Heregulin-induced MCF7 cell proliferation [1]: 90%
- EC50 (ng/ml) n1, inhibition of Heregulin-induced ErbB2 phosphorylation in MCF7 cells [1]: 43.6 ng/mL
- EC50 (ng/ml) n2, inhibition of Heregulin-induced ErbB2 phosphorylation in MCF7 cells [1]: 14.6 ng/mL
- EC50 (ng/ml), inhibition of Heregulin-induced MCF7 cell proliferation [1]: 404 ng/mL
- EC50 (ng/ml), inhibition of SKBR3 cell proliferation [1]: > 36000 ng/mL
- N1 % Inhibition @40 µg/ml, BT474 cell proliferation [1]: -9%
- N1 EC50 (ng/ml), inhibition of BT474 cell proliferation [1]: > 40000 ng/mL
- N2 EC50 (ng/ml), inhibition of BT474 cell proliferation [1]: 4750 ng/mL
- Kd [2]: 3.2 nM
Substance: chimeric anti-hErbB2 antibody 2C4
